What was measured:
[1] = molecular target: CRIPT^L4 (CRIPT mutants with substitutions to any of the last four cysteines), co-IP from mitotic HeLa cells; experiment: co-IP
[2] = molecular target: CRIPT^S4 (CRIPT mutants with substitutions to any of the first four cysteines), co-IP from mitotic HeLa cells; experiment: co-IP

fold of tubulin brought down relative to wild-type CRIPT [1] [fold]	fold of tubulin brought down relative to wild-type CRIPT [2] [fold]	Substance
> 2	> 2	α-tubulin, endogenous, mitotic HeLa cells (from UniProt P68363 1-451) (natural protein)
> 2	> 2	β-tubulin, endogenous, mitotic HeLa cells (from UniProt P07437 1-444) (natural protein)

Reference: paper doi:10.1101/869123
